The assay has as its target T1, human NaV1.8 α-subunit (human, UniProt Q9Y5Y9 1-1956, M1713V, N-linked glycosylation modelled at Asn 312, 819, 1312, 1328 and 1336; further sites N284 and N288).
T1 construct: a TEV protease site stands between the N-terminal tags and the channel; No TEV cleavage is described in the purification, so the N-terminal tags were probably still on the protein on the grids; VSDI was not resolved in the maps; also called hNaV1.8; apo-hNaV1.8; source: HEK293 (FreeStyle 293-F), transiently co-transfected with β4; not shown: FLAG, N-terminal, kept
Briefly: cryo-EM structure; 45 µM ProTx-I incubated 30 min on ice with purified hNaV1.8 in GDN micelles (150 mM NaCl, 25 mM HEPES pH 7.5, 0.006% GDN); excess peptide removed on a 100 kDa MWCO filter; monolayer graphene grids. Conditions: both partners purified.

B1: Protoxin-I (peptide)
peptide: ECRYWLGGCSAGQTCCKHLVCSRRHGWCVWDGTFS
notes: modelled from the NMR ensemble PDB 2M9L; printed residue numbers (R3, W5, L6, S22, R23, W27, V29, W30, D31, G32, F34) count on the peptide; Disulfide-rich (ICK framework); also called ProTx-I; source: bought: Smartox Biotechnology
On to B1, for which the binding result is recorded as “binds”.

Values taken from PMC11805909, “Structural basis of inhibition of human NaV1.8 by the tarantula venom peptide Protoxin-I” (Nature Communications, 2025).
